Source: US7022488

Columns and labels:
Gs = assay: cell-based or functional assay
Gi proteins = assay: cell-based or functional assay

Substance | increase in cAMP levels after pertussis toxin treatment (Gs) [%] | increase of the isoproterenol cAMP response after pertussis toxin treatment (Gi proteins) [fold]
human umami taste receptor hT1R1/hT1R3 (from UniProt Q7RTX1 21-841; Q7RTX0 21-852) | 25 | –
β-adrenergic receptor (β2AR) (from UniProt P07550 1-413) | – | > 17
